Measured values published in the nanobody polyreactivity screen of Harvey et al. (2022).

Assay: yeast display, Sf9 membrane polyspecificity reagent, FACS + sequencing; frameworks hold sequencing errors
In short: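 Galactose-induced (36–48 hours) yeast carrying a synthetic nanobody display library were exposed to 10% biotinylated, detergent-solubilized Sf9 membrane reagent at 4 °C for 1 hour. FACS followed streptavidin microbead enrichment, using low and high (top ~1%) gates for expression (anti-HA) and reagent binding (streptavidin). Colony PCR, MiSeq 2 × 250 sequencing and CDR-length filtering followed. Labels for polyreactivity reflect the gate of origin.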

Row | Sequence | polyreactivity (PSR sort gate)
1 | QVQLVESGGGLVQAGGSLRLSCAASGRIFLPYAMGWYRQAPGKERELVAVITGRGGSTYYADAVKGRFTISRDNAKNTVYLQMNSLQPEDTAVYYCAAAYYRGRGYYWGQGTQVSVSS | high polyreactivity
2 | QVQLVESGGGLVQAGGSLRLSCAASGRIFLRNAMGWYRQAPGKERELVATITSRGGSTYYADSVKGRFTISRDNAKTTVYLQMNSLKPEDTAVYYCAADPRRYRGFGYVYGGFYYWGQGTQVTVSS | low polyreactivity
3 | QVQLVESGGGLVQAGGSLRLSCAASGRIFLRNDMVWYRQAPGKERELVAGISSDGSTYYADSVKGRFTISRDNAKNTVYLQMNSVKREDTAVYDCAAERWGKPTVFQFWRPYDYWGLGTQVTVSS | low polyreactivity
4 | QVQLVESGGGLVQAGGSLRLSCAASGRIFLRYAMGGYRAAPGKERELVAAISTRGSSTYYADSVKGRFTNSRDNAKNTVYLQMNSLKPEDTAVYYCNKAWGPRRGVNVAFDYWGQGTQVTVSS | low polyreactivity
5 | QVQLVESGGGLVQAGGSLRLSCAASGRIFLVNAKGWYRQAPGKERELVAAITYSGRSTYYAYSVKGRFTISRDNAKNTVYLQMNSLKPEDTSLYYCAALHHTQHDYWGQGTQVTVSS | low polyreactivity
6 | QVQLVESGGGLVQAGGSLRLSCAASGRIFLVYAMGWYRQAPGKEREIVASISWSGGSTSYADTVKGLFTISRDNAKNNVSLQMNSLKPEDTAVYYCNAIRRPIFFRGRYYWGQGTQVTVSS | low polyreactivity
7 | QVQLVESGGGLVQAGGSLRLSCAASGRIFLWNAMGWYRQAPGKERELVAAISWSGGSTYYADSVKGRFTISRDNAKNTVYLQMNSLKPEDTAVYYCNRLLSLEYGYWGQGTQVTVSS | high polyreactivity
8 | QVQLVESGGGLVQAGGSLRLSCAASGRIFLWYAMGWYRQAPGKERELVAAIWRGGSTYYADSVKGRFTISRDNAKNTVYLQMNSLKPEDTAVYYCNAQRAPHWYYLFDYWGQGTQVTVSS | low polyreactivity
9 | QVQLVESGGGLVQAGGSLRLSCAASGRIFLYYAMGWYRQAPGKERELVAAISRRGASTYYADSVKGRFTITRDNAKNTVYLQMNSLKPEDTAVYYCGSVPGKSGDYWGQGTQVTVSS | high polyreactivity
10 | QVQLVESGGGLVQAGGSLRLSCAASGRIFLYYAMGWYRQAPGKERELVATISSGGSTHYADSVKGRFTISRDNAKNTVYLQMNSMKPEDTAVYYCAAYGYGRGLEPSTTEMDYWGQGTQVTVSS | low polyreactivity
11 | QVQLVESGGGLVQAGGSLRLSCAASGRIFMPYAMGWYRQAPGKERELVAAITCTGGSTYYADSVKGRFTISRDNAKNTVYLQMNSPKPEDTAVYYCNARRGYQQHRRDYWGQGTQVTVSS | low polyreactivity
12 | QVQLVESGGGLVQAGGSLRLSCAASGRIFNGNAMGWYRQAPGKERELVAAISYSGGATYYADSVKGRFTISRDNAKNTVYLQMNSLKPEDTAVYYCAAAAWDPKGSRYDYWGQGTQVTVSS | low polyreactivity
13 | QVQLVESGGGLVQAGGSLRLSCAASGRIFNINAMGWYRQAPGKERELVAAITWRSGSTYYADSVKGRFTISRDNAKNTVYLQMKSLKPEDTAVYYCAADFSQTRRPIRFYYWGQGTQVTVSS | high polyreactivity
14 | QVQLVESGGGLVQAGGSLRLSCAASGRIFNLNAMVRYRQAPGKERELVAAISKSGTRTYYADSVKGRFTISRDNAKNTVYLQMYSLKPEDTAVYYCGAEALYYDRLGWVYLRYDYWGQGTQVTVSS | high polyreactivity
15 | QVQLVESGGGLVQAGGSLRLSCAASGRIFNLYAMGWYRQAPGKERELVAAISWGGGRTYYADSVKGRFTISRDNAKNTVYLQMNSLKPEDTAVYYCNAVYSPRYYVGGYDYWGQGTQVTVSS | high polyreactivity
16 | QVQLVESGGGLVQAGGSLRLSCAASGRIFNLYDMGWYRQAPGKERELVAAITTGGDTTNYADSVKGRFTISRDNAKNTVYLQMNSLKPEDTAVYYCAADDGWIEPVYGYYEHEYWGQGTQVTVSS | low polyreactivity
17 | QVQLVESGGGLVQAGGSLRLSCAASGRIFNPYAMGWYRQAPGKERELVAAISRGGRTYYADSVKGRFTISRDNAKNTVYLQMNSLKPEDTAVYYCNAGRGLREDDYWGQGTQVTVSS | low polyreactivity
18 | QVQLVESGGGLVQAGGSLRLSCAASGRIFNQYGMGWYRQAPGKERELVASITGSGGTTYYADSVKGRFTISRDNAKNTVYLQMNSLKPEDTAVYYCAAVFYGFVGYYNEDYWGQGTQVTVSS | low polyreactivity
19 | QVQLVESGGGLVQAGGSLRLSCAASGRIFNRNAKGWYRQAPGKERELVAAISSDTSTNYADSVKGRFTISRDNAKNTVYLQMNCLKPEDTAVYYCATKYGTSNWYNTYYYWGQGTQVTVSS | low polyreactivity
20 | QVQLVESGGGLVQAGGSLRLSCAASGRIFNRNAMVWSRQAPGKERELVASISSGGRTNYADSVKGRFTISRDNAKNTVYLQMNSLKPEDTAVYYCAAKSPRILLDYWGQGTQVTVSS | low polyreactivity
21 | QVQLVESGGGLVQAGGSLRLSCAASGRIFNRYAMGWYRQAPGKEREFVAAISVRGGTTYYADSVKGRFTISRDNAKNTVYLQMNSLKPEDTAVYYCAARKISKYDYWGQGTQVTVSS | high polyreactivity
22 | QVQLVESGGGLVQAGGSLRLSCAASGRIFNRYAMGWYSQAPGKERELVARITSSGSTNYADSVKGRFTISRDNAKNTVYLQMNSLKPEDTAVYYCAARKLFIPKYYYWGQGTQVTVSS | high polyreactivity

Row | Sequence | polyreactivity (PSR sort gate)
23 | QVQLVESGGGLVQAGGSLRLSCAASGRIFNSKAKGWYRQEPGKERELVAAISWSGGTTYYADSVKGRFTISRDNAKNTVYLQMNSLKPEDTAVYYCNADLWTSYFGRGDYWGQGTQVTVSS | low polyreactivity
24 | QVQLVESGGGLVQAGGSLRLSCAASGRIFNSNAMGWYRQAPGKERELVAAISSSGTRTYYADSVKGRFTISRDNAKNTVYLQMNSLKPEDTAVYYCNTYYKYAVVPSGGYWGQGTQVTVSS | high polyreactivity
25 | QVQLVESGGGLVQAGGSLRLSCAASGRIFNSNAMGWYRQAPGKERELVAAISWSGGTTYYADSVKGRFTISRDNAKNTVYLQMNSLKPEDTAVYYCNADLWTSYFGRGDYWGQGTQVTVSS | low polyreactivity
26 | QVQLVESGGGLVQAGGSLRLSCAASGRIFNSYAMGWYRQAPGKERELVAAISRNGGITYYADSVKGRFTISRDNAKNTVYLQMNSLKAEATAVYYCNADSSRRRYSSDYWGQGTQVTVSS | high polyreactivity
27 | QVQLVESGGGLVQAGGSLRLSCAASGRIFNVNAMGWYRQAPGKERELVAGITRSGGSTYYADSVKWRFTISRDNAKNTVYLQMNSLNPEDTAVYYCATQATPWYRYYYWGQGTQVTVSS | high polyreactivity
28 | QVQLVESGGGLVQAGGSLRLSCAASGRIFNVYDMGRYRQAPGKERELVAAISSGANTNYADSVKGRFTISRDNAKNTVYLQMNSLKPEDTAVYYCNTEQFYDYDYTFDYWGQGTQVTVSS | low polyreactivity
29 | QVQLVESGGGLVQAGGSLRLSCAASGRIFNWYAMGWYRQEPGKERELVAAISTDGSTYYADSVKGRFTISRDNAKNTVYLQMNSLKPEDTAVYYCAAVPGYTHLWGGPFDYWGQGTQVTVSS | low polyreactivity
30 | QVQLVESGGGLVQAGGSLRLSCAASGRIFNYNAMGWYRQAPGKERELVATITYIGTGTYYADSVKGRFTISRDNAKNTVYLQMNSQKPDDTAVYYCAASYRSRVWWRFDYWGQGSQVTVSS | high polyreactivity
31 | QVQLVESGGGLVQAGGSLRLSCAASGRIFNYYAMGWYRQAPGKERELVAAISKRGGRTYYADSVKGRFTISRDNAKNTVYLQMNSLKPEDTAVYYCNKGFLPSWFTYPYKYYYWGQGTQVTVSS | low polyreactivity
32 | QVQLVESGGGLVQAGGSLRLSCAASGRIFNYYAMGWYRQAPGKERELVARITVGGRTYYADSVKGRFTISRDNAKNTVYLQMNSLKPEDTAVYYCAAVFPYHFGNMDYWGQGTQVTVSS | high polyreactivity
33 | QVQLVESGGGLVQAGGSLRLSCAASGRIFPAYTMGWYRQAPGKERELVAAISRGGRTKYADSVKGRFTISRDNANNTVYLQLNSLKPEDTAVYYCDTVTTYGGVWYDYWGQGTQVTVSS | high polyreactivity
34 | QVQLVESGGGLVQAGGSLRLSCAASGRIFPAYVRVWYRQAPGKERELVAAISDRGGSTYYADSVKGRFTISRDTAKHTVSLQMHRLKPEDTAVYYCAKGGEVSQGYTDDYDYWGQGTQVSVSS | low polyreactivity
35 | QVQLVESGGGLVQAGGSLRLSCAASGRIFPDYDMGWYRQAPGKERELVAAITQRGGSTYADSVKGRFTISRDNAKNTVYLQMNSLKPEDTAVYYCAREYYEAYEYWGQGTQVTVSS | low polyreactivity
36 | QVQLVESGGGLVQAGGSLRLSCAASGRIFPDYVMGWYRQAPGKEREFVAIISYSGVRTYYADSVKGRFTISRDNAKNTVYLQMNSLKPEDTAVYYCAADFKQKGHRTRTTYWGQGTQVTVSS | high polyreactivity
37 | QVQLVESGGGLVQAGGSLRLSCAASGRIFPENAMGWYRQAPGTERELVAAISKNGGRTYYADSVKGRFTISRDNAKNTVYLQMNSLKPEDTAVYYCNRRVQARRYRYDYWGQGTQVTVSS | high polyreactivity
38 | QVQLVESGGGLVQAGGSLRLSCAASGRIFPFNAMGCYRQAPGKEREFVAAIRLSGTRTYYADSVKGRFTISRDNAKNTVYLQINSLKPDDTAVYYCAAKYSGHYYNYDYWGQGTQVTVSS | high polyreactivity
39 | QVQLVESGGGLVQAGGSLRLSCAASGRIFPFYTMGWYRQAPGKERELVAAIRNAGSTKYADSVKGRFTISRDNAKNTVYLQMNSLKPEDTAVYYCNADLTRYRRYYWGQGTQVTVSS | low polyreactivity
40 | QVQLVESGGGLVQAGGSLRLSCAASGRIFPGNALGWYIKAPGKEREFVASINWSVGSTFYADSVKGRFTISRDNAKHTVYLQMNSLKPEDTAVYYCAARTFGYYRSRSFNYWGQGTQVTVSS | high polyreactivity
41 | QVQLVESGGGLVQAGGSLRLSCAASGRIFPGNAMGWYRQAPGKERELVATITESDSSTYYADSVKGRFTISRDNAKNTVYLQMNSLKPDDTAVYYFAAGPSVYWRYDYWGQGTQVTVSS | low polyreactivity
42 | QVQLVESGGGLVQAGGSLRLSCAASGRIFPGYAMGWYRQAPGKERELVAGISNDASTNYADSVKGRFTISRDNAKNTVYLQMNSLKPEDTAVYYCAAEISYLSVPRYDDWGQGTQVTVSS | low polyreactivity
43 | QVQLVESGGGLVQAGGSLRLSCAASGRIFPGYAMGWYRQAPGKERELVASISRTGRTNYADSVKGRFTISRDNAKNTVYLQMNSLKPEDTAVYYCAAEYYHSSYGYGYWGQGTQVTVSS | low polyreactivity
